For this series, the system named is off-target genomic sites. Nature of the series: Off-target oligo insertion based assay in HEK293_Cas9 cells, dgRNAs and sgRNAs (Tables 23, 24). The conditions noted are these: for # Sites (off-target integration sites detected): Table 24, TTR sgRNAs in HekCas9 cells, insertion detection method; for # Sites in HekCas9 cells (Example 5): Table 30, TTR sgRNAs, repeated from Example 5 for comparison. It counts as cell-based, human. How it is done: An oligo insertion based assay (See, e.g., Tsai et al., Nature Biotechnology 33, 187-197; 2015) was used to determine potential off-target genomic sites cleaved by Cas9 targeting TTR. Forty-five dgRNAs from Table 1 (and two control guides with known off-target profiles) were screened in the HEK293 Cas9 cells. The human embryonic kidney adenocarcinoma cell line HEK293 constitutively expressing Spy Cas9 (“HEK293_Cas9”) was cultured in DMEM media supplemented with 10% fetal bovine serum and 500 μg/ml G418. Cells were plated at a density of 30,000 cells/well in a 96-well plate 24 hours prior to transfection. Cells were transfected with Lipofectamine RNAiMAX (ThermoFisher, Cat. 13778150) per the manufacturer's protocol. Cells were transfected with a lipoplex containing individual crRNA (15 nM), trRNA (15 nM), and donor oligo with (10 nM) Lipofectamine RNAiMAX (0.3 μL/well) and OptiMem. Cells were lysed 24 hours post transfection and genomic DNA was extracting using Zymo's Quick gDNA 96 Extraction kit (catalog #D3012) following the manufacturer's recommended protocol. The gDNA was quantified using the Qubit High Sensitivity dsDNA kit (Life Technologies). Libraries were prepared per the previously described method in Tsai et al, 2015 with minor modifications. Sequencing was performed on Illumina's MiSeq and HiSeq 2500. The assay identified potential off-target sites for some of the crRNAs which are plotted in FIG. 2.
Additionally, a subset of the guides was assessed for off-target potential as modified sgRNAs in the Hek_Cas9 cells via the oligo based insertion method described above. The off-target results were plotted in FIG. 4.

Strand notation (5' to 3'): a small letter for the sugar, then the base; units joined by * are phosphorothioate-linked, units joined directly phosphodiester-linked; [ ] holds rarer units or linkages, { } end groups; capitals alone tell only the bases. m = 2'-O-methyl; r = 2'-OH (RNA)

Data on eight molecules can be found in patent US11795460B2, “Compositions and methods for TTR gene editing and treating ATTR amyloidosis” (Intellia Therapeutics, Inc., priority 2017, dated 2023).

B1: G000495: TTR sgRNA modified sequence, Human, SEQ ID No. 102; guide sequence of CR003343 (nucleic acid)
guide: mC*mA*mG*rArGrGrArCrArCrUrUrGrGrArUrUrCrArCrGrUrUrUrUrArGrAmGmCmUmAmGmAmAmAmUmAmGmCrArArGrUrUrArArArArUrArArGrGrCrUrArGrUrCrCrGrUrUrArUrCrAmAmCmUmUmGmAmAmAmAmAmGmUmGmGmCmAmCmCmGmAmGmUmCmGmGmUmGmCmU*mU*mU*mU
On to B1, for which the “# Sites (off-target integration sites detected)” value is 13 and the “# Sites in HekCas9 cells (Example 5)” value came out at 13.

B2: G000492: TTR sgRNA modified sequence, Human, SEQ ID No. 99; guide sequence of CR003342 (nucleic acid)
guide: mC*mU*mU*rCrUrCrUrArCrArCrCrCrArGrGrGrCrArCrGrUrUrUrUrArGrAmGmCmUmAmGmAmAmAmUmAmGmCrArArGrUrUrArArArArUrArArGrGrCrUrArGrUrCrCrGrUrUrArUrCrAmAmCmUmUmGmAmAmAmAmAmGmUmGmGmCmAmCmCmGmAmGmUmCmGmGmUmGmCmU*mU*mU*mU
Regarding B2, the “# Sites (off-target integration sites detected)” value is 97 and the “# Sites in HekCas9 cells (Example 5)” value amounted to 97.

B3: G000485: TTR sgRNA modified sequence, Human, SEQ ID No. 92; guide sequence of CR003336 (nucleic acid)
guide: mC*mC*mU*rCrCrUrCrUrGrCrCrUrUrGrCrUrGrGrArCrGrUrUrUrUrArGrAmGmCmUmAmGmAmAmAmUmAmGmCrArArGrUrUrArArArArUrArArGrGrCrUrArGrUrCrCrGrUrUrArUrCrAmAmCmUmUmGmAmAmAmAmAmGmUmGmGmCmAmCmCmGmAmGmUmCmGmGmUmGmCmU*mU*mU*mU
Take B3: the “# Sites (off-target integration sites detected)” value was determined as 22 and the “# Sites in HekCas9 cells (Example 5)” value amounted to 22.

B4: G000490: TTR sgRNA modified sequence, Human, SEQ ID No. 97; guide sequence of CR003366 (nucleic acid)
guide: mA*mA*mA*rUrArGrArCrArCrCrArArArUrCrUrUrArCrGrUrUrUrUrArGrAmGmCmUmAmGmAmAmAmUmAmGmCrArArGrUrUrArArArArUrArArGrGrCrUrArGrUrCrCrGrUrUrArUrCrAmAmCmUmUmGmAmAmAmAmAmGmUmGmGmCmAmCmCmGmAmGmUmCmGmGmUmGmCmU*mU*mU*mU
As for B4, the “# Sites (off-target integration sites detected)” value amounted to 12 and the “# Sites in HekCas9 cells (Example 5)” value is reported as 12.

B5: G000491: TTR sgRNA modified sequence, Human, SEQ ID No. 98; guide sequence of CR003338 (nucleic acid)
guide: mA*mU*mA*rCrCrArGrUrCrCrArGrCrArArGrGrCrArGrGrUrUrUrUrArGrAmGmCmUmAmGmAmAmAmUmAmGmCrArArGrUrUrArArArArUrArArGrGrCrUrArGrUrCrCrGrUrUrArUrCrAmAmCmUmUmGmAmAmAmAmAmGmUmGmGmCmAmCmCmGmAmGmUmCmGmGmUmGmCmU*mU*mU*mU
In the case of B5, the “# Sites (off-target integration sites detected)” value amounted to 28 and the “# Sites in HekCas9 cells (Example 5)” value was found to be 28.

B6: G000493: TTR sgRNA modified sequence, Human, SEQ ID No. 100; guide sequence of CR003368 (nucleic acid)
guide: mA*mA*mG*rUrGrCrCrUrUrCrCrArGrUrArArGrArUrUrGrUrUrUrUrArGrAmGmCmUmAmGmAmAmAmUmAmGmCrArArGrUrUrArArArArUrArArGrGrCrUrArGrUrCrCrGrUrUrArUrCrAmAmCmUmUmGmAmAmAmAmAmGmUmGmGmCmAmCmCmGmAmGmUmCmGmGmUmGmCmU*mU*mU*mU
Consider B6, for which the “# Sites (off-target integration sites detected)” value amounted to 7 and the “# Sites in HekCas9 cells (Example 5)” value came to 7.

B7: G000484: TTR sgRNA modified sequence, Human, SEQ ID No. 91; guide sequence of CR003367 (nucleic acid)
guide: mA*mG*mA*rCrArCrCrArArArUrCrUrUrArCrUrGrGrArGrUrUrUrUrArGrAmGmCmUmAmGmAmAmAmUmAmGmCrArArGrUrUrArArArArUrArArGrGrCrUrArGrUrCrCrGrUrUrArUrCrAmAmCmUmUmGmAmAmAmAmAmGmUmGmGmCmAmCmCmGmAmGmUmCmGmGmUmGmCmU*mU*mU*mU
Take B7: the “# Sites (off-target integration sites detected)” value is on record as 7 and the “# Sites in HekCas9 cells (Example 5)” value worked out at 7.

B8: G000487: TTR sgRNA modified sequence, Human, SEQ ID No. 94; guide sequence of CR003357 (nucleic acid)
guide: mU*mU*mC*rUrUrUrGrGrCrArArCrUrUrArCrCrCrArGrGrUrUrUrUrArGrAmGmCmUmAmGmAmAmAmUmAmGmCrArArGrUrUrArArArArUrArArGrGrCrUrArGrUrCrCrGrUrUrArUrCrAmAmCmUmUmGmAmAmAmAmAmGmUmGmGmCmAmCmCmGmAmGmUmCmGmGmUmGmCmU*mU*mU*mU
Turning to B8, the “# Sites (off-target integration sites detected)” value came to 14 and the “# Sites in HekCas9 cells (Example 5)” value is 14.
